B1: Complement factor H (Homo sapiens), P08603 (parent)
chain: MRLLAKIICLMLWAICVAEDCNELPPRRNTEILTGSWSDQTYPEGTQAIYKCRPGYRSLGNVIMVCRKGEWVALNPLRKCQKRPCGHPGDTPFGTFTLTGGNVFEYGVKAVYTCNEGYQLLGEINYRECDTDGWTNDIPICEVVKCLPVTAPENGKIVSSAMEPDREYHFGQAVRFVCNSGYKIEGDEEMHCSDDGFWSKEKPKCVEISCKSPDVINGSPISQKIIYKENERFQYKCNMGYEYSERGDAVCTESGWRPLPSCEEKSCDNPYIPNGDYSPLRIKHRTGDEITYQCRNGFYPATRGNTAKCTSTGWIPAPRCTLKPCDYPDIKHGGLYHENMRRPYFPVAVGKYYSYYCDEHFETPSGSYWDHIHCTQDGWSPAVPCLRKCYFPYLENGYNQNYGRKFVQGKSIDVACHPGYALPKAQTTVTCMENGWSPTPRCIRVKTCSKSSIDIENGFISESQYTYALKEKAKYQCKLGYVTADGETSGSITCGKDGWSAQPTCIKSCDIPVFMNARTKNDFTWFKLNDTLDYECHDGYESNTGSTTGSIVCGYNGWSDLPICYERECELPKIDVHLVPDRKKDQYKVGEVLKFSCKPGFTIVGPNSVQCYHFGLSPDLPICKEQVQSCGPPPELLNGNVKEKTKEEYGHSEVVEYYCNPRFLMKGPNKIQCVDGEWTTLPVCIVEESTCGDIPELEHGWAQLSSPPYYYGDSVEFNCSESFTMIGHRSITCIHGVWTQLPQCVAIDKLKKCKSSNLIILEEHLKNKKEFDHNSNIRYRCRGKEGWIHTVCINGRWDPEVNCSMAQIQLCPPPPQIPNSHNMTTTLNYRDGEKVSVLCQENYLIQEGEEITCKDGRWQSIPLCVEKIPCSQPPQIEHGTINSSRSSQESYAHGTKLSYTCEGGFRISEENETTCYMGKWSSPPQCEGLPCKSPPEISHGVVAHMSDSYQYGEEVTYKCFEGFGIDGPAIAKCLGEKWSHPPSCIKTDCLSLPSFENAIPMGEKKDVYKAGEQVTYTCATYYKMDGASNVTCINSRWTGRPTCRDTSCVNPPTVQNAYIVSRQMSKYPSGERVRYQCRSPYEMFGDEEVMCLNGNWTEPPQCKDSTGKCGPPPPIDNGDITSFPLSVYAPASSVEYQCQNLYQLEGNKRITCRNGQWSEPPKCLHPCVISREIMENYNIALRWTAKQKLYSRTGESVEFVCKRGYRLSSRSHTLRTTCWDGKLEYPTCAKR

Variants of: B1
Details: with albu_bovin ALB

effect of a mutation on the interaction	Variant
decreasing interaction strength	Y402H
